Laboratory results published in patent publication US20240132589A1.

Legend:
[1] = target: Human LILRB2 on stably transduced HEK293T cells (human) (UniProt Q8N423); assay: flow cytometry competition on HEK293T-LILRB2 cells; blocking mAb 1 µg/mL; competitor: biotinylated B2Comp2
[2] = target: Human LILRB2 on stably transduced HEK293T cells (human) (UniProt Q8N423); assay: flow cytometry competition on HEK293T-LILRB2 cells; blocking mAb 10 µg/mL; competitor: biotinylated B2Comp2
[3] = target: Human LILRB2 on stably transduced HEK293T cells (human) (UniProt Q8N423); assay: flow cytometry competition on HEK293T-LILRB2 cells; blocking mAb 0.1 µg/mL; competitor: biotinylated B2Comp2
[4] = target: Human LILRB2 on stably transduced HEK293T cells (human) (UniProt Q8N423); assay: flow cytometry competition on HEK293T-LILRB2 cells; blocking mAb 10 µg/mL; competitor: biotinylated B2Comp1
[5] = target: Human LILRB2 on stably transduced HEK293T cells (human) (UniProt Q8N423); assay: flow cytometry competition on HEK293T-LILRB2 cells; blocking mAb 0.1 µg/mL; competitor: biotinylated B2Comp1
[6] = target: Human LILRB2 on stably transduced HEK293T cells (human) (UniProt Q8N423); assay: flow cytometry competition on HEK293T-LILRB2 cells; blocking mAb 1 µg/mL; competitor: biotinylated B2Comp1

Sequence of Human LILRB2 on stably transduced HEK293T cells (human) (Q8N423 other isoform, or with tags, fused parts or gaps limits assumed): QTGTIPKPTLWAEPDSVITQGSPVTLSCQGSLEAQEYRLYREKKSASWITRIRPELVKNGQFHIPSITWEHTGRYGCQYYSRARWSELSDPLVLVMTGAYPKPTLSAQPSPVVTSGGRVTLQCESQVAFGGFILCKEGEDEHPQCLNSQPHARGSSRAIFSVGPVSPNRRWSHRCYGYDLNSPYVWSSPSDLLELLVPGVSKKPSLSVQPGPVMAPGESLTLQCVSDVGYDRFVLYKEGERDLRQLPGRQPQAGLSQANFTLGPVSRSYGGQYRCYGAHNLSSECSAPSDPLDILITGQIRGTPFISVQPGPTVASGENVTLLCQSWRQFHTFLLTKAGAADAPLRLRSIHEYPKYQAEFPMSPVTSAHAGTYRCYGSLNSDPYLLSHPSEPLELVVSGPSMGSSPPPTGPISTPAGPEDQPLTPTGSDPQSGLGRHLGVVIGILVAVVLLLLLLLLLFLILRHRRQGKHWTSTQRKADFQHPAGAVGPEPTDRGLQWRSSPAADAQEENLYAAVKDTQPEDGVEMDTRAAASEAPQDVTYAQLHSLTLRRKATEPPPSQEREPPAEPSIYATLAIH

hIgG4 isotype control (antibody)
0%: % Blocking of B2Comp2 Binding [1] | % Blocking of B2Comp2 Binding [2] | % Blocking of B2Comp2 Binding [3] | % Blocking of B2Comp1 Binding [4] | % Blocking of B2Comp1 Binding [5] | % Blocking of B2Comp1 Binding [6]
